In PMC11230231 (bioRxiv, 2024):

Biological target: integrin α5β1 on cells (human (endogenous in K562 and MCF10A), UniProt P08648;P05556)
Assay: flow cytometry on cells

integrin α5β1 on cells, sequence (P08648 42-1049, chain 1 of 2): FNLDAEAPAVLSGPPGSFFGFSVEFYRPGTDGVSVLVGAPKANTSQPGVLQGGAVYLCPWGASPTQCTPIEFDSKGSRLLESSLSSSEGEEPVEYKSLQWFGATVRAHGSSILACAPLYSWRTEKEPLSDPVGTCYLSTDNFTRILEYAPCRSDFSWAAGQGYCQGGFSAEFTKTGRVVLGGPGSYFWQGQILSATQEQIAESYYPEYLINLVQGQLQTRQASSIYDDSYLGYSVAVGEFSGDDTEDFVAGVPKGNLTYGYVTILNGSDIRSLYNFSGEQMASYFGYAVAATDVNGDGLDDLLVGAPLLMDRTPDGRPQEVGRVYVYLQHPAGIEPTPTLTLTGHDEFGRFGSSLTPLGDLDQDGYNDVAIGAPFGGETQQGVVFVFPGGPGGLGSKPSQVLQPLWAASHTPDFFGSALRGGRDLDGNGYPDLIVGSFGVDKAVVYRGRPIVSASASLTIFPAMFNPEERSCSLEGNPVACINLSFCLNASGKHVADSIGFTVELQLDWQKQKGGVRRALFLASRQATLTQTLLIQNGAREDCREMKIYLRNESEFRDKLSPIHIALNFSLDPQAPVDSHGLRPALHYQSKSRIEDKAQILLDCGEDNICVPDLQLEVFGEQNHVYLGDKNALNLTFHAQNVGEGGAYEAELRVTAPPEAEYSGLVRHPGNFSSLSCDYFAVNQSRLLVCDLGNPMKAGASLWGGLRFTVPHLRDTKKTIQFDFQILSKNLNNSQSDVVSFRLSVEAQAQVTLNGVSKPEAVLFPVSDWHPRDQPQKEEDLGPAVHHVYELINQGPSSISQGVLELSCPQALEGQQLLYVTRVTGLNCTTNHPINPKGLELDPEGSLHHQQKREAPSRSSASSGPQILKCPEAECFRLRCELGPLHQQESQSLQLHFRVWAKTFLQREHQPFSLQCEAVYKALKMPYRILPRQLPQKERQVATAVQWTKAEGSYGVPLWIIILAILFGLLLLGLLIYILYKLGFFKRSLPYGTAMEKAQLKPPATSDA
integrin α5β1 on cells, sequence (P05556 21-798, chain 2 of 2): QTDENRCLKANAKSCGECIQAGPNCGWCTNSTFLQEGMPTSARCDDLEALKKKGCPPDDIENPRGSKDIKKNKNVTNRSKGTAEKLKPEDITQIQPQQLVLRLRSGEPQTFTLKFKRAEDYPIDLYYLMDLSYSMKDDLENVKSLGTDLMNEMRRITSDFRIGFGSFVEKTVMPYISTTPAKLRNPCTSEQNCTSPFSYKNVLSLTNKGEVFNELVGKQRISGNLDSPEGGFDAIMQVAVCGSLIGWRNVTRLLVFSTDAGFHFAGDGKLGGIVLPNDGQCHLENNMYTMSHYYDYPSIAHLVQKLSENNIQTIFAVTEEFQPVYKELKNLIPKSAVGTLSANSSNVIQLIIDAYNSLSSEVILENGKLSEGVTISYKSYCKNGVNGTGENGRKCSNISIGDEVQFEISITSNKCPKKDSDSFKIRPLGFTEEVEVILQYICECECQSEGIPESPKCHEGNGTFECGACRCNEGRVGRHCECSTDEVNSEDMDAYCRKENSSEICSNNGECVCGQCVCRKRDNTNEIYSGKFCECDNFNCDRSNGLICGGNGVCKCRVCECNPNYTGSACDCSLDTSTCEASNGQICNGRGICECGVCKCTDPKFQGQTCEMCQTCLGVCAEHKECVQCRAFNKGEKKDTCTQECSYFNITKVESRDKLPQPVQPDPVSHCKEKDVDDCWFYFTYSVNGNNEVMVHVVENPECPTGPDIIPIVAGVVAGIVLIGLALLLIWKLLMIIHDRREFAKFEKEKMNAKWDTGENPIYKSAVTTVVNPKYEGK

Kd: 150 ± 20 µM
B1: RGD peptide (GRRGDGATGH) (peptide)
peptide: GRRGDGATGH
